The source of these data is patent US20230001007A1, “Glycan-Interacting Compounds and Methods of Use” (Seagen Inc., priority 2017, published 2023).

By IC50 is commonly meant the concentration at which inhibition is half-maximal. Broadly, the EC50 is the midpoint of the concentration-response curve.

Assay [1] concerns MDA-MB-231 cells transfected for enhanced expression of STn (STn positive cells). As to the kind of experiment: ADC cytotoxicity assay ([…]-GLO). Format: cell-based. Particulars: MMAE-conjugated ADC versions; 72 hours; kill of STn positive cells. As to the method:
MMAE-conjugated ADC versions of hSIA101, hSIA102, and hSIA103 were assessed in an ADC cytotoxicity assay using MDA-MB-231 cells (parental or transfected for enhanced expression of STn). Parental cells were grown in Eagle's Minimum Essential Medium (EMEM) supplemented with 10% FBS, lx Pen/Strep and 45 μg/mL gentamycin. STn positive cells were grown in the same media except with the addition of 1 mg/mL G418 for antibiotic selection. Cells were seeded separately (4,000 cells/well for parental cells or 2,000/well for STn positive cells) in 96-well plates using proper media described above. Cells were grown overnight. After 16-20 hours, cells were treated with varying concentrations of test antibodies in triplicate (50 nM to 0.012 nM) for 72 hours. Then, cells were analyzed using an ADC […]-GLO® luminescent cell viability assay kit (Promega, Madison, Wis.) to determine the amount of ATP present, an indicator of metabolically active cells. The assay uses a single reagent that is added directly to the cultured cells in serum-supplemented medium. The reagent lyses the cells and generates a luminescent signal proportional to the amount of ATP present. Luminescent signals were analyzed and used to calculate the half-maximal inhibitory concentration (IC50) values for each antibody used based on the concentration required to kill STn positive cells at half-maximal levels (see Table 9).

Assay [2] deals with MDA-MB-231-STn cells. As to the kind of experiment: Flow cytometry-based binding analysis. The settings on record: 0 to 300 nM, read-out: MDA-MB-231-STn cell binding [EC50 (nM)]. The protocol:
Humanized IgG1 antibodies, prepared as described above, were subjected to characterization analysis including flow cytometry-based binding analysis with MDA-MB-231-STn cells; binding analysis by BSM ELISA; and glycan array analysis.
In flow cytometry-based binding studies, antibodies were screened over a concentration range of 0 to 300 nM, comparing binding to MDA-MB-231 cells with or without transfection-induced STn expression. Binding was determined using an anti-human APC conjugated secondary antibody and only live cells were considered (based on propidium iodide negative gating). 5,000 events were collected per sample on average. Data were analyzed using FlowJo software (Asland, Oreg.) and resulting APC means and % APC were obtained. […] Human isotype IgG1 antibody was used as an isotype negative control. Epidermal growth factor receptor (LA22, EMD Millipore, Billerica, Mass.) was used as a positive control.
(In flow cytometry, cells or beads pass a laser one at a time.)

Assay [3] relates to array glycans (AcSTn, GcSTn, Tn and others). As to the kind of experiment: Glycan array analysis. Format: binding. Details: key: Group 1: capable of binding AcSTn and GcSTn, if they bind to glycans 5, 6, 23 and 24; Group 2: capable of binding STn as well as some related structures that include an O-linkage to serine or threonine, if they bind to glycans 5, 6, 23, 24, 27 and 31; Group 3: capable of binding STn, but may also bind a broader set of related structures) if they bind glycans 5, 6, 23, 24, 17, 3, 19, 37, 27 and 31; Group 4: capable of binding to both AcSTn and GcSTn as well as the un-sialylated Tn antigen (therefore having broader specificity) if they bind to glycans 5, 6, 23, 24 and 47. As to the method:
Optimized glycan arrays are utilized to test antibody affinity and specificity for multiple glycans in a single experiment. Glycan arrays include 71 chemically synthesized and well-defined glycans, most of which are Neu5Ac and Neu5Gc glycan pairs.
300 ml of epoxy blocking buffer is prepared by combining 15 ml of 2 M Tris buffer (pH 8) with 0.9 ml of 16.6 M ethanolamine and 284.1 ml of distilled water. The solution is brought to a final pH of 9.0 with HCl. The solution is filtered using a […] nitrocellulose membrane. The epoxy buffer solution as well as 1 L of distilled water are pre-warmed to 50° C. Glass slides are arranged in a slide holder and quickly submerged in a staining tub with the warmed epoxy blocking buffer. Slides are incubated in the epoxy blocking buffer for 1 hour at 50° C. with periodic shaking to deactivate epoxy binding sites. Next, slides are rinsed and blocked with PBS with 1% OVA at 25° C. for one hour. Serum samples with polyclonal antibodies (1:1000) or purified monoclonal antibodies (1 ug/mL), are diluted in PBS with 1% OVA and added to the glycan array for one hour at 25° C. After extensive washing, binding of antibodies are detected by incubating glycan microarray slides with Cy3-conjugated anti-mouse IgG (Jackson Immunoresearch, West Grove, Pa.) for one hour. Slides are then washed extensively, dried and scanned with a Genepix 4000B scanner (Laser at 100%; gain at 350; 10 μm pixels). Raw data from scanned images are extracted using the Genepix software and analysis of raw data is carried out.
Based on array analysis, antibodies are classified according to array glycan binding profile. Antibodies are classified as “Group 1” antibodies, capable of binding AcSTn and GcSTn, if they bind to glycans 5, 6, 23 and 24. Such antibodies are referred to as Pan-STn antibodies due to their ability to associate with a wider range of STn structures and the portion of STn indicated by the largest ellipse in FIG. 1A. […]

Assay [4] concerns bovine submaxillary mucin (BSM). As to the kind of experiment: BSM ELISA, periodate-sensitive STn binding. As to the method:
For BSM ELISA analysis, antibodies were screened over a concentration range of 0 to 100 nM on bovine submaxillary mucin (BSM) coated wells. A subset of wells were treated with mild periodate solution before antibody introduction to remove the side chain on terminal sialic acid residues (destroying the STn antigen). Optical densities of periodate and non-periodate-treated wells were determined and log transformed then fit to a nonlinear regression model to obtain a dose response curve. Optical density values obtained from periodate-treated wells were subtracted from non-periodate treated wells to obtain a periodate-sensitive STn binding curve and corresponding EC50 values.
A general note: ELISA stands for enzyme-linked immunosorbent assay.

Assay [5] concerns COLO205. As to the kind of experiment: STn expression on CRC line by flow cytometry using anti-STn antibodies. Type of assay: cell-based. Particulars: detected using mSIA103. As to the method:
(§1) Mouse antibodies were characterized for in vitro and in vivo efficacy in breast, colon and ovarian cancer models. The antibodies were used to identify CRC cell lines that express STn on the surface. Five CRC lines were incubated in vitro and grown to confluency. % STn expression was determined by flow cytometry using anti-STn antibodies. Approximately 30-70% of cultured SW403, COL0205 and LS174T cells naturally expressed STn on the surface (as detected using mSIA103), while HT29 and RKO had very little to no detectable STn (as detected using hSIA101) on their cell surface (see Table 6).

The test system of assay [6] is LS174T. The assay is described as above. Particulars: detected using mSIA103. Format: cell-based. As to the method: as §1
The test system of assay [7] is SW403. The description is as above. Format: cell-based. Particulars: detected using mSIA103. As to the method:
as §1

Assay [8] relates to CRC Tissue Microarray (TMA) cores. As to the kind of experiment: CRC Tissue Microarray staining for STn with and without neuraminidase. Format: binding. An excerpt: Further, a CRC Tissue Microarray (TMA) (NBP2-30214; Novus Bio, Littleton, Colo.) was stained for STn expression. The array consists of 59 cores with and without a neuraminidase (sialidase) enzyme treatment. Neuraminidase specifically cleaves terminal sialic acids and destroys STn antigen present on the tissue.

B1: hSIA102 (antibody, V domains shown)
VH: QVQLVQSGAEVKKPGASVKISCKASGYTFTDHAIHWVRQAPGQGLEWIGYFSPGNDDIKYNEKFKVRATLTADKSSSTAYMELRSLRSDDTAVYFCKRSYYGDWGQGTLVTVSS
VL: DIQMTQSPSSLSASVGDRVTITCRASENIYSHLAWYQQKPGKAPKLLVYGATNLASGVPSRFSGSGSGTQFTLTISSLQPEDFATYYCQHFWGAPFTFGQGTKVEIK
As for B1, the IC50 in assay [1] was 2.6 nM. In assay [2], the concentration for a half-maximal effect (EC50) turned out to be 0.1 nM. The “Array glycan binding profile” value in assay [3] is “Group 4”. Further, the “periodate sensitivity of binding in ELISA assays” value in assay [4] is on record as “not periodate sensitive”.

B2: hSIA103 (antibody, V domains shown)
VH: QVQLVQSGAEVKKPGASVKVSCKASGYTFTDHAIHWVRQAPGQGLEWMGYISPGNGDIKYNEKFKDRVTMTADKSSSTAYMQLRSLRSDDTAVYFCKRSLLALDYWGQGTLVTVSS
VL: DIQMTQSPSSLSASVGDRVTITCKASQDVGTNIAWYQQKPGKAPKVLIYSASTRHTGVPSRFSGSGSGTDFTLTISSLQPEDFATYFCQQYSSFPLTFGQGTKVEIK
Take B2: the IC50 in assay [1] came out at 1.3 nM. For the same molecule, the half-maximal effective concentration (EC50) in assay [2] is 0.3 nM; in assay [4] (periodate-sensitive STn binding curve, 0 to 100 nM) it was 1.8 nM. In addition, the “Array glycan binding profile” value in assay [3] is recorded as “Group 1”.

B3: mSIA103: mouse IgG2a anti-STn antibody, VH SEQ ID NO: 5, VL SEQ ID NO: 6; variable domains from 3F1 IgG1 antibodies (antibody, V domains shown)
VH: QVQLQQSDAELVKPGASVKISCKASGYTFTDHAIHWVKQKPEQGLDWIGYISPGNGDIKYNEKFKDKVTLTADKSSSTACMHLNSLTSEDSAVYFCKRSLLALDYWGQGTTLTVSS
VL: DIVMTQSHKFMSTSVGDRVSITCKASQDVGTNIAWYQQKPGRSPKVLIYSASTRHTGVPDRFTGSGSGTDFTLTISNVQSEDLTDYFCQQYSSFPLTFGVGTKLELK
modifications: mouse IgG2a constant regions
notes: variable domains from 3F1 IgG1 antibodies
On to B3, for which the “% STn expression” value was 67.7% in assay [5], 69.9% in assay [6] and 30.0% in assay [7]. Besides, the “staining on normal colon” value in assay [8] (8 cores) was “restricted to crypt and surface mucosa”. In assay [8] (250 mU/mL neuraminidase, all 45 positive cores), the “staining after neuraminidase treatment” value is reported as “abolished”. Moreover, the “neoplastic cores with some level of positive membrane staining” value in assay [8] (out of the 51 neoplastic cores on the TMA) came out at 45.
